Measurements published in IntAct's records for PubMed 30591568.

B1: CD226 antigen (Mus musculus), Q8K4F0 (parent)
chain: MAYVTWLLAILHVHKALCEETLWDTTVRLSETMTLECVYPLTHNLTQVEWTKNTGTKTVSIAVYNPNHNMHIESNYLHRVHFLNSTVGFRNMSLSFYNASEADIGIYSCLFHAFPNGPWEKKIKVVWSDSFEIAAPSDSYLSAEPGQDVTLTCQLPRTWPVQQVIWEKVQPHQVDILASCNLSQETRYTSKYLRQTRSNCSQGSMKSILIIPNAMAADSGLYRCRSEAITGKNKSFVIRLIITDGGTNKHFILPIVGGLVSLLLVILIIIIFILYNRKRRRQVRIPLKEPRDKQSKVATNCRSPTSPIQSTDDEKEDIYVNYPTFSRRPKPRL
partner: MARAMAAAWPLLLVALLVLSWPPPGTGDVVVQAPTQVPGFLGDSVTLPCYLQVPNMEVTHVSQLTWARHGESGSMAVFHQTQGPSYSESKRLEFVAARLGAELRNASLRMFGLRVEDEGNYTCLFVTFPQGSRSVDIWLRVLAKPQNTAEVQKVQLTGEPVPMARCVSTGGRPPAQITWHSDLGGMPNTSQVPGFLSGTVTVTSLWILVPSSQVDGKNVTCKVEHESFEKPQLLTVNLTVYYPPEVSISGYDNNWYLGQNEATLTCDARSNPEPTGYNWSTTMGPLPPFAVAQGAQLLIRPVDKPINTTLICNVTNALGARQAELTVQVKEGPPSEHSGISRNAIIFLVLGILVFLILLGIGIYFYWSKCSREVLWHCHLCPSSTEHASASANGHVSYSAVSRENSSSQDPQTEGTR
B2: Poliovirus receptor (Homo sapiens), P15151 (parent)
chain: B1 partner
partner: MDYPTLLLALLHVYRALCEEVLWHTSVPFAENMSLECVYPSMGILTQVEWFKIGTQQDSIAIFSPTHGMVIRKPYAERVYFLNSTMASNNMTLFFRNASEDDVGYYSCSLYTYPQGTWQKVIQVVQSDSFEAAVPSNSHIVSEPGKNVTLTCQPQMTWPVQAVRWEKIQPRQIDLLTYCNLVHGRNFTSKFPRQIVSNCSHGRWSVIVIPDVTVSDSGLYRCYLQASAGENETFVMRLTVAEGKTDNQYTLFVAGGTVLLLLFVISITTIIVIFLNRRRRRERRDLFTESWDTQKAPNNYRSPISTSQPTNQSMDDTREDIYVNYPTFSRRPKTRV
B3: Poliovirus receptor (Homo sapiens), P15151 (parent)
chain: B1 partner
partner: B1 chain

Variants of: B1
Conditions: with pvr_human PVR, P15151

Row | Variant | effect of a mutation on the interaction
1 | MAYVTWLLAILHVHKALCEETLWDTTVRLSETMTLECVYPLTHNLTQVEWTKNTGTKTVSIAVYNPNANMHIESNYLHRVHFLNSTVGFRNMSLSFYNASEADIGIYSCLFHAFPNGPWEKKIKVVWSDSFEIAAPSDSYLSAEPGQDVTLTCQLPRTWPVQQVIWEKVQPHQVDILASCNLSQETRYTSKYLRQTRSNCSQGSMKSILIIPNAMAADSGLYRCRSEAITGKNKSFVIRLIITDGGTNKHFILPIVGGLVSLLLVILIIIIFILYNRKRRRQVRIPLKEPRDKQSKVATNCRSPTSPIQSTDDEKEDIYVNYPTFSRRPKPRL [H68A] | decreasing interaction strength
2 | MAYVTWLLAILHVHKALCEETLWDTTVRLSETMTLECVYPLTHNLTAVEWTKNTGTKTVSIAVYNPNHNMHIESNYLHRVHFLNSTVGFRNMSLSFYNASEADIGIYSCLFHAFPNGPWEKKIKVVWSDSFEIAAPSDSYLSAEPGQDVTLTCQLPRTWPVQQVIWEKVQPHQVDILASCNLSQETRYTSKYLRQTRSNCSQGSMKSILIIPNAMAADSGLYRCRSEAITGKNKSFVIRLIITDGGTNKHFILPIVGGLVSLLLVILIIIIFILYNRKRRRQVRIPLKEPRDKQSKVATNCRSPTSPIQSTDDEKEDIYVNYPTFSRRPKPRL [Q47A] | disrupting interaction strength
3 | MAYVTWLLAILHVHKALCEETLWDTTVRLSETMTLECVYPLTHNLTQVEWTKNTGTKTVSIAVYNPNHNMHIESNYLHRVHFLNSTVGFRNMSLSFYNASEADIGIYSCLFHAAPNGPWEKKIKVVWSDSFEIAAPSDSYLSAEPGQDVTLTCQLPRTWPVQQVIWEKVQPHQVDILASCNLSQETRYTSKYLRQTRSNCSQGSMKSILIIPNAMAADSGLYRCRSEAITGKNKSFVIRLIITDGGTNKHFILPIVGGLVSLLLVILIIIIFILYNRKRRRQVRIPLKEPRDKQSKVATNCRSPTSPIQSTDDEKEDIYVNYPTFSRRPKPRL [F114A] | disrupting interaction strength
4 | MAYVTWLLAILHVHKALCEETLWDTTVRLSETMTLECVYPLTHNLTRVRWTKNTGTKTVSIAVYNPNSNMHIESNYLHRVHFLNSTVGFRNMSLSFYNASEADIGIYSCLFHARPNGPWEKKIKVVWSDSFEIAAPSDSYLSAEPGQDVTLTCQLPRTWPVQQVIWEKVQPHQVDILASCNLSQETRYTSKYLRQTRSNCSQGSMKSILIIPNAMAADSGLYRCRSEAITGKNKSFVIRLIITDGGTNKHFILPIVGGLVSLLLVILIIIIFILYNRKRRRQVRIPLKEPRDKQSKVATNCRSPTSPIQSTDDEKEDIYVNYPTFSRRPKPRL [Q47R;E49R;H68S;F114R] | disrupting interaction strength

Variants of: B2
Conditions: with cd226_human CD226, Q15762

Row | Variant | effect of a mutation on the interaction
5 | MARAMAAAWPLLLVALLVLSWPPPGTGDVVVQAPTQVPGFLGDSVTLPCYLQVPNMEVTHVSRLTWARHGESGSMAVFHQTQGPSYSESKRLEFVAARLGAELRNASLRMFGLRVEDEGNYTCLFVTRPQGSRSVDIWLRVLAKPQNTAEVQKVQLTGEPVPMARCVSTGGRPPAQITWHSDLGGMPNTSQVPGFLSGTVTVTSLWILVPSSQVDGKNVTCKVEHESFEKPQLLTVNLTVYYPPEVSISGYDNNWYLGQNEATLTCDARSNPEPTGYNWSTTMGPLPPFAVAQGAQLLIRPVDKPINTTLICNVTNALGARQAELTVQVKEGPPSEHSGISRNAIIFLVLGILVFLILLGIGIYFYWSKCSREVLWHCHLCPSSTEHASASANGHVSYSAVSRENSSSQDPQTEGTR [Q63R;F128R] | disrupting interaction strength

Variants of: B3
Conditions: with cd226_mouse Cd226, Q8K4F0

Row | Variant | effect of a mutation on the interaction
6 | MARAMAAAWPLLLVALLVLSWPPPGTGDVVVQAPTQVPGFLGDSVTLPCYLQVPNMEVTHVSRLTWARHGESGSMAVFHQTQGPSYSESKRLEFVAARLGAELRNASLRMFGLRVEDEGNYTCLFVTRPQGSRSVDIWLRVLAKPQNTAEVQKVQLTGEPVPMARCVSTGGRPPAQITWHSDLGGMPNTSQVPGFLSGTVTVTSLWILVPSSQVDGKNVTCKVEHESFEKPQLLTVNLTVYYPPEVSISGYDNNWYLGQNEATLTCDARSNPEPTGYNWSTTMGPLPPFAVAQGAQLLIRPVDKPINTTLICNVTNALGARQAELTVQVKEGPPSEHSGISRNAIIFLVLGILVFLILLGIGIYFYWSKCSREVLWHCHLCPSSTEHASASANGHVSYSAVSRENSSSQDPQTEGTR [Q63R;F128R] | disrupting interaction strength
